Experiments:
[1] = molecular target: purified vaccine protein with HA from influenza A/PR/8/1934 (H1N1), with the C-terminal foldon trimerization domain (influenza A/PR/8/1934 (H1N1) | T4 phage) (UniProt P03452); assay: SEC
[2] = molecular target: purified vaccine protein with HA from influenza A/PR/8/1934 (H1N1), with the C-terminal foldon trimerization domain (influenza A/PR/8/1934 (H1N1) | T4 phage) (UniProt P03452); assay: native gel or EMSA

Q: Which stoichiometry N [1] does the source give for “purified vaccine protein with HA from influenza A/PR/8/1934 (H1N1), with the C-terminal foldon trimerization domain (from UniProt P03452)” here?
A: 3

Q: And the stoichiometry N [2]?
A: 3
